Results from patent US20260226168A1.

Assays:
[1] = molecular target: hGPRC5D (UniProt Q9NZD1); test: flow cytometry on RPMI-8226 cells; negative control (EC50 '/': curve could not be fitted)
[2] = molecular target: hGPRC5D (UniProt Q9NZD1); test: flow cytometry on MM.1S cells; negative control (EC50 '/': curve could not be fitted)
[3] = molecular target: hGPRC5D (UniProt Q9NZD1); test: flow cytometry on NCI-H929 cells; negative control (EC50 '/': curve could not be fitted)

Chain of hGPRC5D (Q9NZD1 whole entry): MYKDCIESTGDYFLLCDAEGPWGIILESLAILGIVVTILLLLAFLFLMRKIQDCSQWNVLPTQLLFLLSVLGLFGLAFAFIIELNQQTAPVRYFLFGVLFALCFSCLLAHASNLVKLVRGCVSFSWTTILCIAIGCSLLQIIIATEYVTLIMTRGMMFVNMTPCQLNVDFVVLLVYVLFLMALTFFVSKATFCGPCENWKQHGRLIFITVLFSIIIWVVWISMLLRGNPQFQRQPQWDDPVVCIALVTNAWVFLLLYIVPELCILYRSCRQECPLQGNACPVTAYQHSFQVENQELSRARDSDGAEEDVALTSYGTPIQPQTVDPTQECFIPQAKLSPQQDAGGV

Substance: hIgG1 monoclonal antibody (Biointron, Cat. No. B117901)
- Top(MFI) [1]: 3860
- Top(MFI) [2]: 6770
- Top(MFI) [3]: 4180
